Key:
[1] = biological target: mouse ICOS-mFc (Chimerigen) (mouse) (UniProt Q9WVS0); test: HTRF neutralisation of Alexa 647 mouse B7-H2 binding to mouse ICOS-mFc; hamster IgG, run with the IgG1 mAbs
[2] = biological target: human ICOS-mFc (Chimerigen) (human) (UniProt Q9Y6W8); test: HTRF neutralisation of Alexa 647 human B7-H2 binding to human ICOS-mFc; hamster IgG, run with the IgG1 mAbs; mean, n = 4
[3] = biological target: mouse ICOS-mFc (Chimerigen) (mouse) (UniProt Q9WVS0); test: HTRF neutralisation of Alexa 647 mouse B7-H2 binding to mouse ICOS-mFc; hamster IgG, run with the IgG1 mAbs; mean, n = 3
[4] = biological target: human ICOS-mFc (Chimerigen) (human) (UniProt Q9Y6W8); test: HTRF neutralisation of Alexa 647 human B7-H2 binding to human ICOS-mFc; hamster IgG, run with the IgG4.PE mAbs; mean, n = 4
[5] = biological target: mouse ICOS-mFc (Chimerigen) (mouse) (UniProt Q9WVS0); test: HTRF neutralisation of Alexa 647 mouse B7-H2 binding to mouse ICOS-mFc; hamster IgG, run with the IgG4.PE mAbs; mean, n = 3

mouse ICOS-mFc (Chimerigen) (mouse), sequence (Q9WVS0 21-141 limits assumed, change not shown): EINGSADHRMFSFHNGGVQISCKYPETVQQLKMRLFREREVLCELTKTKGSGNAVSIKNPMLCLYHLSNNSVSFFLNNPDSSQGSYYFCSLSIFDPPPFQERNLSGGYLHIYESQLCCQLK
human ICOS-mFc (Chimerigen) (human), sequence (Q9Y6W8 21-140, change not shown): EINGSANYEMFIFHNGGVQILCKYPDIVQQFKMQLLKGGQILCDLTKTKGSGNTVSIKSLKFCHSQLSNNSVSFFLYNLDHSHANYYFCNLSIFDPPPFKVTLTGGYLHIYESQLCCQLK

- IC50 [1]: 0.14 nM
- IC50 [2]: 1.2 nM
- IC50 [3]: 0.1 nM
- IC50 [4]: 2.8 nM
- IC50 [5]: 0.2 nM
Substance: Anti-ICOS antibody C398.4A (hamster IgG)
